One series deals with human insulin (Homo sapiens, UniProt P01308). Description: Test of dissolution of human insulin at its isoelectric point. The class given is physicochemical. The following applies: human insulin 100 IU/mL alone, pH 5.3. An excerpt:
If an interaction exists between human insulin and the substituted anionic compound, it is then possible to dissolve the human insulin at its isoelectric point. […] The appearance of the solution is documented.

The subject of another series is humans. The following applies: injected subcutaneously, diabetic patients; cited from earlier work.

Chain of human insulin (P01308 25-54 limits assumed): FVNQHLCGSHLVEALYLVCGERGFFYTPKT
Chain of human insulin (P01308 90-110 limits assumed): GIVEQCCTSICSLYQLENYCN

With “Human insulin: Human insulin, tested at 100 IU/mL alone in the dissolution test; isoelectric point 5.3”, in the series with human insulin, the Visual appearance entry is given as “Turbid”. In the series with humans, the “time to hypoglycemiant effect” value is 60 min.

The values are drawn from patent US20160015814A1, “Fast-acting insulin formulation comprising a substituted anionic compound and a polyanionic compound” (ADOCIA, priority 2014, published 2016).
